Results as given in patent US12508311B2, “Fusion protein, and preparation method and use thereof” (SUN YAT-SEN UNIVERSITY, priority 2021, dated 2025).

Columns and labels:
[1] = target: T1, KRas protein (Homo sapiens, UniProt P01116); experiment: SPR binding capacity experiment (BiacoreT200); conditions: in vitro; for binding capacity with the KRas protein (SPR): molecule coupled on CM5 chip, KRas flowing
T1 construct: made in house
Description: 100 μL of coating solution was added into each well of 96-well ELISA plate to coat overnight at 4° C. • (3) Blocking: the ELISA plate was cleaned with a phosphate buffer solution (PBS) (PBS formula: 4 g of NaCl, 0.1 g of KCl, 1.815 g of disodium hydrogen phosphate dodecahydrate, and 0.12 g of […], dissolved in 400 mL of ultrapure water, with a constant volume of 500 mL for use) for 5 minutes each time. 300 μL of 5% (w/v) bovine serum albumin was added into each well, and blocked at 37° C. for 2 hours. • (4) Adding of the purified protein KRas: 6.25 μg, 12.5 μg, 25 μg, 50 μg and 100 μg of purified protein were respectively pre-mixed and diluted in 200 μL of PBS, and the diluted KRas protein was added into the wells in sequence, and slowly shaken at the room temperature for 5 hours. […] Main steps of the example were as follows: • (1) Coupling of ligand: the target coupling amount was calculated according to the following formula:
[formula] wherein Rmax was the maximum binding capacity on the chip surface, and 100 RU was usually substituted in a protein test. […] Through the preconcentration experiment, it was determined that pH 5.0 was the optimal coupling condition. […] In this experiment, aimforimmobilized level was selected, and the calculated 110RU was inputted in target level. […]

[2] = tested on: KRas protein in SW1116 (KRas G12D); experiment: Western blot of KRas degradation in SW1116 cells; format: cell-based
Text: Cell lines used in this embodiment were SW1116 (KRas G12D), SW480 (KRas G12V) and H358 (KRas G12C), all of which came from ATCC and have item numbers of CCL-233, CCL-228 and CRL-5800 respectively. The treatment process of each cell was consistent with that described in the influence of administration time on degradation of KRas above.

[3] = tested on: HT29 cells; experiment: Flow cytometry of tumor cell targeting, HT29; format: cell-based, human; conditions: tested as 60 nM TKD-Cy5, 1 hour, Lys 05 10 μM
Description: (§1) Wherein, the protein C18 column (25 cm×10 mm) was used, with sample injection of 2×400 μL each time, and gradient elution was carried out for 30 minutes, 0.1% TFA (trifluoroacetic acid) solution to MeCN (acetonitrile): H2O (0.1% TFA)=70:30, and a flow rate was 4 mL/min. • (4) Target color tape peaks were collected, and the retention time of a labeled polypeptide was longer than that of an unlabeled polypeptide. • (5) The TKD-Cy5 molecule was diluted to 60 μM, and stored in a PBS solution, and kept in the dark at −20° C. 2. […] The cells were treated with corresponding drugs, namely, in the experimental groups, the cells were treated with 60 nM TKD-Cy5 coupling molecule, and in the control groups, the cells were treated with the Cy5 single molecule with corresponding concentration. The lysosome inhibitor Lys 05 with the final concentration of 10 μM was added into the control groups and the experimental groups at the same time, and the final volume of the culture solution in each well was 1 mL. […] The cells were resuspended with the PBS buffer solution, and centrifuged again, and the supernatant was discarded. The operation was repeated for three times. Finally, the cleaned cells were resuspended in 0.2 mL of PBS, wrapped with foil paper, and then analyzed on the flow cytometer (company: BECKMAN COULTER; model: Cytoflex), with the fluorescence channel of APC-A.

[4] = tested on: normal intestinal epithelial cells FHC; experiment: Flow cytometry of tumor cell targeting, normal cells FHC; format: cell-based, human; conditions: tested as 60 nM TKD-Cy5, 1 hour, Lys 05 10 μM
Description: as §1

[5] = Residence time in vivo (serum western blot); parameters: species or system mice
Description: • (1) Balb/c nude mice, female, 4 weeks to 5 weeks old, purchased from Guangdong Laboratory Animal Center and raised in Laboratory Animal Center of Sun Yat-sen University, were used in this experiment. […] The serum protein concentration was measured by the BCA method (as described above). 20 μg of serum protein was respectively taken for the WB experiment (as described above), and whole serum protein gel running and Coomassie brilliant blue staining. • (4) Experimental results were shown in FIG. 19.

[6] = tested on: HCT116 (KRas G13D); experiment: Cell clone formation experiment, HCT116; conditions: 10 and 20 μg/mL

T1 sequence (P01116 whole entry): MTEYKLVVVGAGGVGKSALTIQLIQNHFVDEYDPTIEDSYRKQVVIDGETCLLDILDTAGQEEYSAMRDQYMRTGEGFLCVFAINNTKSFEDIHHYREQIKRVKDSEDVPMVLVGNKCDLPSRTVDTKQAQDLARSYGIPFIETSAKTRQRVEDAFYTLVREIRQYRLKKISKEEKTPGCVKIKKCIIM

B1: TKD: fusion protein: tumour-cell-penetrating peptide BR2, anti-KRas nanobody VHH and lysosome recognition peptide CTM; SEQ ID NO.4 (protein)
chain: RAGLQFPVGRLLRRLLRDVQLQESGGGLVQAGGSLRLSCVASGRTFSTYPTGWFRQAPGKEREFVARINLSGGITNYADSVKGRFTISRDNAKNTVYLQMNSLKPEDTAVYYCGGGSTTWAGGIPTNFDYWGQGTQVTVSSGRKFERQKILDQRFFE
level of binding between TKD and the KRas protein (SPR) [1]: reached the level of antigen-antibody binding (nM) | binding capacity with the KRas protein (SPR) [1]: had a strong binding capacity with the KRas protein in vitro | degradation of mutated KRas protein (western blot) [2]: could induce the degradation of the KRas proteins in different mutation states, and the degradation effect was remarkable | entry into cells (flow cytometry, Cy5 fluorescence) [3]: could specifically recognize and pass through the cell membrane to enter the colorectal cancer cells | entry into cells (flow cytometry, Cy5 fluorescence) [4]: could not enter the normal colorectal epithelial cells | detection in serum after administration (western blot) ([5]; 50 mg/kg intraperitoneal once, 3 days after administration): could still be detected | half-life period in vivo ([5]; inferred from serum detection 3 days after 50 mg/kg): long | inhibition of clone growth [6]: could significantly inhibit the growth

B2: TKDm: control molecule of TKD with mutated CTM fragment (CTMmt) which could not be recognized by a lysosome; SEQ ID NO.5 (protein)
chain: RAGLQFPVGRLLRRLLRDVQLQESGGGLVQAGGSLRLSCVASGRTFSTYPTGWFRQAPGKEREFVARINLSGGITNYADSVKGRFTISRDNAKNTVYLQMNSLKPEDTAVYYCGGGSTTWAGGIPTNFDYWGQGTQVTVSSGRKFERAKILDARFFE
binding capacity with the KRas protein (SPR) [1]: had a strong binding capacity with the KRas protein in vitro
